Substrate in assay [1]: T1, CC chemokine receptor 10 (CCR10) on L1.2 cells (human) (UniProt P46092)
T1 sequence: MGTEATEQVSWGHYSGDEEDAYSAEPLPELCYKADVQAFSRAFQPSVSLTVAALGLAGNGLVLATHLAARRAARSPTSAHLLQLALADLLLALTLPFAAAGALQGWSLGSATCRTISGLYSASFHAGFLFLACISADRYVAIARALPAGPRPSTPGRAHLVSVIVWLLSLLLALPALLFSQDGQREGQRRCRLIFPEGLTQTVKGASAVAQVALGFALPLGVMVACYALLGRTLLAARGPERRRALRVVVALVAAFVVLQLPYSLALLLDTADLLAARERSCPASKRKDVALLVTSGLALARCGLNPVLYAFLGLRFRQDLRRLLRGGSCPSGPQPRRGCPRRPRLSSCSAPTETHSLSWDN

Assay [2] deals with T2, CCR10-RlucII (human, UniProt P46092 1-362).
T2 sequence (looked up): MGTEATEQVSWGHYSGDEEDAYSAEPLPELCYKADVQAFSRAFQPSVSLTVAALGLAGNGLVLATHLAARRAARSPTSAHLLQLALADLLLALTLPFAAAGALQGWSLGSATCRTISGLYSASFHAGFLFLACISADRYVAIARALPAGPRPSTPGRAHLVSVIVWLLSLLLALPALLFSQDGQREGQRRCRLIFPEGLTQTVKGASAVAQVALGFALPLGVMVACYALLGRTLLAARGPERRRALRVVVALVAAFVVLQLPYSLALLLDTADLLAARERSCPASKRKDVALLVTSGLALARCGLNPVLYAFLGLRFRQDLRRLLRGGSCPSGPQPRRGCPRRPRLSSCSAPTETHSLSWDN
The assay is described as follows: cell-based or functional assay.

Substrate in assay [3]: T1, 
The source holds these as a separate data set.

Substrate in assay [4]: T1, 
The source holds these as a separate data set.

Assay [5] has as its target T2, CCR10-RlucII.

Read-outs that look alike come from different tables or passages of the source.

B1: F1A-CCL27 (ligand)
chain: ALLPPSTACCTQLYRKPLSDKLLRKVIQVELQEADGDCHLQAFVLHLAQRSICIHPQNPSLSQWFEHQERKLHGTLPKLNFGMLRKMG
For B1, in assay [1], the migration of L1.2/CCR10 cells, dose-response (0.1 nM to 1 μM), reduction in efficacy relative to WT CCL27 worked out at 35%; the migration of L1.2/CCR10 cells, dose-response (0.1 nM to 1 μM), reduction in potency relative to WT CCL27 stood at 10 fold; the transwell migration of L1.2/CCR10 cells at 50 nM chemokine, reduction compared to WT CCL27 came out at 85%.

B2: CCL27 (ligand)
chain: FLLPPSTACCTQLYRKPLSDKLLRKVIQVELQEADGDCHLQAFVLHLAQRSICIHPQNPSLSQWFEHQERKLHGTLPKLNFGMLRKMG
As to B2, the “β-arrestin2 recruitment to CCR10-RlucII by BRET in HEK293 cells, EC50 of the chemokine” value in the assay with CCR10-RlucII [2] came to 89 nM.

B3: F-CCL27 (ligand)
chain: FFLLPPSTACCTQLYRKPLSDKLLRKVIQVELQEADGDCHLQAFVLHLAQRSICIHPQNPSLSQWFEHQERKLHGTLPKLNFGMLRKMG
As for B3, in assay [3], the internalization of CCR10 on L1.2/CCR10 cells (3.1-100 nM chemokine, 45 min, 37 °C), percent of receptor remaining on the surface at 3.1 nM came out at 30%. In assay [4], the bare filter chemotaxis of L1.2/CCR10 cells, efficacy relative to WT CCL27 was 1.1 fold; the bare filter chemotaxis of L1.2/CCR10 cells, potency relative to WT CCL27 came to 10 fold; the transendothelial migration of L1.2/CCR10 cells, efficacy relative to WT CCL27 is 2.7 fold; the transendothelial migration of L1.2/CCR10 cells, potency relative to WT CCL27 came out at 3 fold. In the assay with CCR10-RlucII [5], this molecule showed a β-arrestin2 recruitment to CCR10-RlucII by BRET in HEK293 cells, EC50 of the chemokine of 19 nM and a β-arrestin2 recruitment to CCR10-RlucII by BRET in HEK293 cells, Emax relative to WT-CCL27 of 1.8 fold.

B4: NT28-CCL27 (ligand)
chain: ILPIASSCCTQLYRKPLSDKLLRKVIQVELQEADGDCHLQAFVLHLAQRSICIHPQNPSLSQWFEHQERKLHGTLPKLNFGMLRKMG
Regarding B4, in the assay with CCR10-RlucII [2], the “β-arrestin2 recruitment to CCR10-RlucII by BRET in HEK293 cells, efficacy relative to WT CCL27” value was 1.5 fold and the “β-arrestin2 recruitment to CCR10-RlucII by BRET in HEK293 cells, potency relative to WT CCL27” value stood at 3.5 fold.

The values are drawn from article PMC12556802, “Rules of engagement: Determinants of chemokine receptor activation and selectivity by CCL27 and CCL28” (The Journal of Biological Chemistry, 2025).
